Reference: PMC4297295, “Structural Conservation Despite Huge Sequence Diversity Allows EPCR Binding by the PfEMP1 Family Implicated in Severe Childhood Malaria” (Cell Host & Microbe, 2015)

T1: endothelial protein C receptor (EPCR), extracellular domain, biotinylated on the N-terminal BAP tag (human, UniProt Q9UNN8 18-210, biotin attached to the N-terminal BAP tag (BirA))
T1 construct: also called biotinylated recombinant EPCR; ECPR
T1 sequence: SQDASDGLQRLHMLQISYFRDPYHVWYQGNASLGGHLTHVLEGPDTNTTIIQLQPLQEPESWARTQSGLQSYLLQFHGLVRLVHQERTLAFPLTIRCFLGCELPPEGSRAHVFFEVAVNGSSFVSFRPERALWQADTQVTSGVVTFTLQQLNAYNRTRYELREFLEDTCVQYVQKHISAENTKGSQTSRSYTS

B1: CIDRα1.1 domain GA011_ERS009959 (domain or fragment)
chain: PDCVVYCEGGECKENENGDNCRSEIIKEIVRSETPTVIDVLYSGNGQDHITEKLDHFCSSTNKEDRKYYKTLKCYNKNNDYNKCEMISWLYQDPKESNLMLSIQCFYSWAQNLLIDTIRWEHQLKDCINNTNVTDCKSNCNKNCKCYKKWIEQKGSEWQQVKQVLKKKDKNSENYYDKLKDVFDTLYFEVMHELNKGKEKGKSEELTEDLKKKFGPSKKNTDAADSKDAIEFLLDHLNDNAITCKDNNSLAVENCTRTKSNPC
notes: also called CIDRa1.1 GA011_ERS009959; GA011 (1.1)
B2: CIDRα1.1 domain of PfEMP1 RAJ116var08 (domain or fragment)
chain: PDCVVDCTGGNCKENKKHDNCRSKIIEEILRSEETTDIDVLYSGKGPGAITKKLHDFCSNPNNYKRANVQKWKCYNKNKDYNNCEMNISSYKDATDPNVMLSVQCFYSWAQNLLIDIIRWEHQLKDCINNTNVTDCDNECNKNCECFEKWIKQKQKEWQQVKEVLKKKDENSHNYYNKLRSVFDSFLYQVMFALNNEEKGKWDQFTEDLEKKFESSKKSAGTGNSQDAIEFLLDHLNDNAITCKDNNSKESC
notes: also called CIDRa1.1 RAJ116var08_RAJ116; RAJ116var08 (1.1)
B3: CIDRα1.5a domain GA013_ERS010323 (domain or fragment)
chain: PYCGVDCSNGTCKENGNDDNCGEQQNYNIPKGVDPTNINVLYSVDGHGDIAKRLSTFCNDKNNKNAKNNEIWQCYYIGHKNNQCKIEKSVSQKKHQTKIAPFDYFFDLWVTNLLRDNIDWKNELKNCINNKNTEKCNKECNDNCKCFQSWLNKKEDEWNKITGLLKNKNGILQNYYNKLKSHFDYYFFQVINNINKGEEKWKKLKEDLKKEIDFSKLKTNTGDSQDSIKLLLDHENKNAGTCLKNNPIDSCPKAEPQKSDEKVQPQDTPPNSC
notes: also called CIDRa1.5a GA013_ERS010323; GA013 (1.5a)
B4: CIDRα1.1 domain of PfEMP1 IT4var20 (domain or fragment)
chain: PDCVVQCKGGKCTEDKKNDKCRSKIIKKILQSEEPTEIHVLNSDDKQGDITKKLEVFCSSTTNYEGRNVQKWKCYNKNSDYNNCEMNISSYKDSTDANVMLSVECFHSWAKNLLIDTIKWEHQLKNCINNTNVTYCESKCIKNCECYEKWIKRKEHEWEKVKNVFGNNNRMSYIYYNNLSRVFDSFLFQVMFALDQDEKGKWDQFTEDLKKKFEPSKTNTPTGKSQDAIEFLLDHLKDNALTCRDNNSNESCDVSKKVKTNPC
notes: also called CIDRa1.1 IT4var20_IT4; IT4var20 (1.1)
B5: CIDRα1.4 domain of PfEMP1 DD2var32 (domain or fragment)
chain: PDCGVECNKGTCKKKPNDSNCRNNEAYIPPRDVTPTKINVLYSGDGHGDITKKLKGFCSNPTDYDGKNYENWQCYYKSSEDNKCQMTSLSQTLQKHHYVMSFYAFFDFWVRKFLIDTIKWENELKNCINNTTTDCSDGCNKHCVCFDKWVKQKEKEWNSIKKLFTKKNNVPQPYYTNINNLFDSFYFQVMYELNHDEAKWKELTQELRNKINSSKKNTDAADSKDAIELLLEYLKEKSTICKDNNTNEAC
notes: also called CIDRa1.4 DD2var32_DD2; DD2var32 (1.4)
B6: CIDRα1.5a domain 1965-2 (patient isolate 1965) (domain or fragment)
chain: PDCGVECKNGRCKKKTDADGNCGKTQIYDIPKDVTPTDINVLYSGDEYGDIAKRLSEFCRDSKKENGKNTEIWHCYYIGDKHNQCKMEKAVAENKHQTKITTFDFFFDLWIKNLLRDTINWKSQLKNCINNTNKTNCNKTCNENCKCFENWVNQKEKEWNNMKELFKNKNRTSQNYYNKLKSHFDNYFFLVINNVNKGEAKWKKFTDELRNKIDSSKAKNGTSDSQDSIKMLLEHLKEDGTTCTANNPDSICNTPGTDARSLEPASKIEPQNKDTRTNPC
B7: CIDRα1.5b domain 1983-13 (patient isolate 1983) (domain or fragment)
chain: PDCGVECNGKTCTKKEETDENCGKPPNYTIPTDVTPTDINVLYSGDEQGYITKRLSEFCGPTKNYIGKKNELWKCYYDDKQKNNNNNNNICKLQPNAHIKNENIIINFDNFFEFWVRRFLNDTIDWKYDLNTCMNFTNTTKCNNNCNKNCKCFEQWVNIKKTEWKNVTEYFFKHDETSKKKYCEILKDIFENYYVEVIEKFYKGKHKWKERIEKLKNMDCSQVKIGTNASQDQIDIFLSNLKGDATQCTSKNPKSACNKPHAARIITRATTRNPC

What follows are binders tested against T1, endothelial protein C receptor (EPCR), … (assay: SPR). Conditions: both partners purified.
B1 showed a Kd of 182 nM, a koff of 7.24e-05 s⁻¹ and a kon of 389 M⁻¹ s⁻¹. Binder B2 has a Kd of 1.4 nM, a koff of 3.85e-05 s⁻¹ and a kon of 27900 M⁻¹ s⁻¹. With B3 the Kd was 57 nM, the koff was 0.000832 s⁻¹ and the kon was 14700 M⁻¹ s⁻¹. B4 showed a Kd of 0.37 nM, a koff of 0.000123 s⁻¹ and a kon of 332000 M⁻¹ s⁻¹. B5 showed a Kd of 0.3 nM, a koff of 0.000343 s⁻¹ and a kon of 1.06e+06 M⁻¹ s⁻¹. With B6 the Kd was 54 nM, the koff was 0.00103 s⁻¹ and the kon was 18900 M⁻¹ s⁻¹. Work on B7 yielded a Kd of 169000 nM, a koff of 0.00047 s⁻¹ and a kon of 2.8 M⁻¹ s⁻¹.
